Experimental data taken from patent publication US20230087785A1, “Leucine-Rich Repeat Kinase 2 Allosteric Modulators” (VIB VZW, priority 2020, published 2023).

Assays:
LRRK2(G2019S) = biological target: T1, LRRK2(G2019S) (Homo sapiens, UniProt Q5S007, G2019S/M2397T/R50H); assay: In cellulo phospho-Rab / LRRK2 autophosphorylation assay in HEK293T cells; assay type: cell-based; set-up: key to Functional Group (see FIG. 2d): Group 1: group 1: Nbs that inhibit both LRRK2 autophosphorylation and Rab10 phosphorylation in cells; Group 2: group 2: Nbs that inhibit only Rab10 phosphorylation; Group 3: group 3: Nbs that activate LRRK2 kinase activity; Group 4: group 4: Nbs that have no consistent/clear effect on LRRK2 kinase activity; conditions: for LRRK2 autophosphorylation at position S1292 / influence on LRRK2 kinase activity compared to the controls / Rab10 phosphorylation at position T72: HEK 293T cells co-expressing LRRK2(G2019S), Rab29 and Nb-GFP; for influence on LRRK2 kinase activity compared to the controls: Western blot; for Functional Group (see FIG. 2d): classification by effect on in cellulo LRRK2(G2019S) kinase activity; for Rab10 phosphorylation at position T72: endogenous Rab10
T1 construct: SF tag (FLAG + Twin-Strep); expressed in transfected cells; host or cells: HEK 293T
Procedure, shortened: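 Cells co-transfected (PEI) with SF-tagged LRRK2(G2019S), FLAG-HA Rab29 and Nb-GFP fusions, lysed after 48 hrs. Western blot read LRRK2 pS1292 and endogenous Rab10 pT72 with site-specific antibodies, referenced to total LRRK2 and Rab10; ECL chemiluminescence on film.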

mScarlet-LRRK2 = biological target: T2, mScarlet-LRRK2 (Homo sapiens, UniProt Q5S007, M2397T/R50H); assay: Confocal microscopy of LRRK2 microtubule localization in HEK293 cells; assay type: cell-based; conditions: HEK293 cells co-transfected with mScarlet-LRRK2 and GFP-Nb, treated with 1 μM MLi-2
T2 construct: expressed in transfected cells; host or cells: HEK293
Source text: HEK 293 cells were co-transfected with the indicated GFP-Nbs and mScarlet-LRRK2. […] Scale bar 5 μm.
FIG. 6. […] Scale bar 5 μm.
The binding of LRRK2 to microtubules subsequently reduces the kinesin—and dynein-mediated transport along microtubules.
Recent structural information has linked LRRK2 microtubule relocalization to the conformation of the kinase domain, with a closed conformation favoring LRRK2 binding to microtubules. As a consequence, the commonly used ATP-competitive type I LRRK2 inhibitors trigger this effect. In addition, it was shown before that the WD40 domain is indispensable for LRRK2-microtubule association.
A HEK293 cell line was cultured in complete media (high-glucose Dulbecco's modified Eagle's medium, 10% fetal bovine serum and Penicillin-Streptomycin-Glutamine (Gibco)). Cells were seeded on 8-well p-Slide(Ibidi) and transfected at a confluency of 50-70% with GFP-Nb and mScarlet-LRRK2 constructs, using JetPEI reagent (Polyplus transfection). […] Data acquisition was done with a ×100 oil-immersion objective with a Zeiss LSM800 confocal laser scanning microscope. Image analysis of z-scan was done using the Zeiss microscope software ZEN.

T1 sequence (Q5S007 whole entry R50H/G2019S/M2397T): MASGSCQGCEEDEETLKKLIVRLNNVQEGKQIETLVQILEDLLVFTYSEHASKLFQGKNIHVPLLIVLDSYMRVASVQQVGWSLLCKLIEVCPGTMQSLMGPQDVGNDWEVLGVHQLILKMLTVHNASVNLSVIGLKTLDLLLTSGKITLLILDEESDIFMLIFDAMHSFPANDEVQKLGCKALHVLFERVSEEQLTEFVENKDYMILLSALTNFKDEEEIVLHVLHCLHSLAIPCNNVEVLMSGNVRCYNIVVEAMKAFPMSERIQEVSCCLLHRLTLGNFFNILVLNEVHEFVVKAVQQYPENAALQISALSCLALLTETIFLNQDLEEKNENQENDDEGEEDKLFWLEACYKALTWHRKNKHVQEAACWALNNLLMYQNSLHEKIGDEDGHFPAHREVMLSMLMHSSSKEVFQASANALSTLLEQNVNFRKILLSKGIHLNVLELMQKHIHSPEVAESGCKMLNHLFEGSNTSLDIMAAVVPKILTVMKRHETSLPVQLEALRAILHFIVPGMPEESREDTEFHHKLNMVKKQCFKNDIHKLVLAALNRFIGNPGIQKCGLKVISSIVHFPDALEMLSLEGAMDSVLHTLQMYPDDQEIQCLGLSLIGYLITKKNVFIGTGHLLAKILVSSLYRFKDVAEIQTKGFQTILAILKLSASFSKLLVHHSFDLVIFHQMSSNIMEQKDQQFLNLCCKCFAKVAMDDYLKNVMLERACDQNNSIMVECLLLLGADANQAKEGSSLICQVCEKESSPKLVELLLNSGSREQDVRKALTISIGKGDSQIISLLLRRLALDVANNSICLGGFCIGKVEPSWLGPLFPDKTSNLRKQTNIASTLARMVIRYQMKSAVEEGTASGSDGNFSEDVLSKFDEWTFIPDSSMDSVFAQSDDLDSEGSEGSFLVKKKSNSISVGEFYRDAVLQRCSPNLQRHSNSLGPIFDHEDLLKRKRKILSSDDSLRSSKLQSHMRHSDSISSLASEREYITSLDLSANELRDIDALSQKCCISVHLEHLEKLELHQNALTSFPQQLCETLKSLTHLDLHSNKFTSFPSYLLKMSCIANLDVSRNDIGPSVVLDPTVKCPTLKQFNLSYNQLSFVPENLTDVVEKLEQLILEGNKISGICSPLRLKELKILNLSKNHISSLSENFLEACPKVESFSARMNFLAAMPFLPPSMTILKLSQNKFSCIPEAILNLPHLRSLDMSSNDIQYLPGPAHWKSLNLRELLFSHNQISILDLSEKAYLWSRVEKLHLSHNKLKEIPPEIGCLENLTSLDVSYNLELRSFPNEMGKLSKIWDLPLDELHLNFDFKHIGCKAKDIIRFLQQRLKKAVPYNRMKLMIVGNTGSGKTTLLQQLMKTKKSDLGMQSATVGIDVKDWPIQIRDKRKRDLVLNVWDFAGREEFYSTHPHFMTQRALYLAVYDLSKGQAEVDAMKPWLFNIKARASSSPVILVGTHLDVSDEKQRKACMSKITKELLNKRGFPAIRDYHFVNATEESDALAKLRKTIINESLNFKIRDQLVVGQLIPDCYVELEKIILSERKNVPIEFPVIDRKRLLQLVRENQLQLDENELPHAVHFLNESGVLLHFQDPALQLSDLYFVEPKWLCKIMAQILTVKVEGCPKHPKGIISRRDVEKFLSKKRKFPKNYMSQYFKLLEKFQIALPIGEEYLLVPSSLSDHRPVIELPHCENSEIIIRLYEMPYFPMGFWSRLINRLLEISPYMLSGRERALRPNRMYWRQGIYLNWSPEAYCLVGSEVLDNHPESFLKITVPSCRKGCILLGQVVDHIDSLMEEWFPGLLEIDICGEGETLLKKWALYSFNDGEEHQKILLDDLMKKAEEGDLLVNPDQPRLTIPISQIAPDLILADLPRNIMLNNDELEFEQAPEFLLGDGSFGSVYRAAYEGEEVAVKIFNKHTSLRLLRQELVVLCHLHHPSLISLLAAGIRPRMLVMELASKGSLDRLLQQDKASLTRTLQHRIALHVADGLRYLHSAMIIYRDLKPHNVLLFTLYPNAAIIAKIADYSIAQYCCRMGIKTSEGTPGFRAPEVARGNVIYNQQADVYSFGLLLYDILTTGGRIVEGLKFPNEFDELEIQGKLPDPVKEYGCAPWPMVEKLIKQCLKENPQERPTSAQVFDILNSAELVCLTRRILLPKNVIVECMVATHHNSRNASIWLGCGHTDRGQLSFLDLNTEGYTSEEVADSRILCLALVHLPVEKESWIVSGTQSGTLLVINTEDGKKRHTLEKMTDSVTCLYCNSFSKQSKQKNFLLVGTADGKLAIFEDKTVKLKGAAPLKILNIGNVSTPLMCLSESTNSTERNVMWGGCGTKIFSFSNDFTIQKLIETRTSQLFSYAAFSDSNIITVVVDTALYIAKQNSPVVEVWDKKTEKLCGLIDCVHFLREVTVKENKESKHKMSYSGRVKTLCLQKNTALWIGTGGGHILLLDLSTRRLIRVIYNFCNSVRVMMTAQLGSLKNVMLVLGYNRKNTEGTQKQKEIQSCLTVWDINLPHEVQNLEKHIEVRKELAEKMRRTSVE
T2 sequence (Q5S007 whole entry R50H/M2397T): as the sequence (Q5S007 whole entry R50H/G2019S/M2397T) above, with S2019G counted along it

| Molecule | Functional Group (see FIG. 2d) (LRRK2(G2019S)) | effect on MLi-2-induced recruitment of LRRK2 to microtubules (mScarlet-LRRK2) | LRRK2 autophosphorylation at position S1292 (LRRK2(G2019S)) | influence on LRRK2 kinase activity compared to the controls (LRRK2(G2019S)) | Rab10 phosphorylation at position T72 (LRRK2(G2019S)) |
| --- | --- | --- | --- | --- | --- |
| Nb1: LRRK2-specific Nanobody, SEQ ID NO: 1 (protein, Nanobody CA12610) VHH: MAQVQLVESGGGLVQAGGSLRLSCVASGRIFSGNAMGWYRQAPGRQRELVAGITNGGYTNYRQFVKGRFTISRDNAKRTVYLQMNSLKPEDTAVYYCNALDREARQVDYWGQGTQVTVSS | Group 1 | – | inhibit both Rab10 phosphorylation and LRRK2 autophosphorylation at S1292 | strongly decreased LRRK2 autophosphorylation and/or Rab10 phosphorylation | inhibit both Rab10 phosphorylation and LRRK2 autophosphorylation at S1292 |
| Nb22: LRRK2-specific Nanobody, SEQ ID NO: 9 (protein, Nanobody CA13611) VHH: MAQVQLVESGGGLVQAGGSLRLSCAASGRTFSSYTMGWFRQAPGKEREFVAAIRWSGGSTYYADSVKGRFTISRDNAKNTVYLQMNSLKPEDTAVYYCAASDRGGFIATSGGWMDYWGKGTQVTVSS | Group 3 | rescuing effect is most prominent | – | significant increase of LRRK2 kinase activity | activating Rab10 phosphorylation in cells |
| Nb6: LRRK2-specific Nanobody, SEQ ID NO: 2 (protein, Nanobody CA12618) VHH: MAQVQLVESGGGLVQAGGSLRLSCAASGSIFSPTAMGWYRQAPGKERELVAGITSGGYTNYRNFARGRFTISRDNAKKTVYLQMNSLNPEDTAVYYCNTLTISWSWGQGTQVTVSS | Group 1 | – | inhibit both Rab10 phosphorylation and LRRK2 autophosphorylation at S1292 | strongly decreased LRRK2 autophosphorylation and/or Rab10 phosphorylation | inhibit both Rab10 phosphorylation and LRRK2 autophosphorylation at S1292 |

More lines, main results first:

| Functional Group (see FIG. 2d) (LRRK2(G2019S)) | effect on MLi-2-induced recruitment of LRRK2 to microtubules (mScarlet-LRRK2) | Molecule | LRRK2 autophosphorylation at position S1292 (LRRK2(G2019S)) | influence on LRRK2 kinase activity compared to the controls (LRRK2(G2019S)) | Rab10 phosphorylation at position T72 (LRRK2(G2019S)) |
| --- | --- | --- | --- | --- | --- |
| Group 1 | – | Nb42: LRRK2-specific Nanobody, SEQ ID NO: 6 (protein, Nanobody CA14259) VHH: MAQVQLVESGGGLVQAGGSLRLSCAASGDVNYAVGWFRQAPRKEREFVAAINWRGDNTDYTDSVKGRFTISRDNAKNTVYLQMNSLKPEDTAVYYCAAKSAPYWYSDIAPDYWGQGTQVTVSS | inhibit both Rab10 phosphorylation and LRRK2 autophosphorylation at S1292 | strongly decreased LRRK2 autophosphorylation and/or Rab10 phosphorylation | inhibit both Rab10 phosphorylation and LRRK2 autophosphorylation at S1292 |
| Group 1 | rescuing effect is most prominent | Nb23: LRRK2-specific Nanobody, SEQ ID NO: 3 (protein, Nanobody CA13612) VHH: MAQVQLVESGGGLVQAGGSLRLSCAASGRTFSRYTMGWFRQAPGKDREFVARITTSGAVTTYADSAKGRFTISRDNAKNTVYLQMNTLKPEDTAVYYCAAGQGQLSSQSRFVDYWGQGTQVTVSS | inhibit both Rab10 phosphorylation and LRRK2 autophosphorylation at S1292 | strongly decreased LRRK2 autophosphorylation and/or Rab10 phosphorylation | inhibit both Rab10 phosphorylation and LRRK2 autophosphorylation at S1292 |
